One series deals with TMD-TEVcs-tTA. As to the kind of experiment: TMD-TEVcs-tTA / tetO-EGFP reporter expression in HEK293T cells. Format: cell-based. The settings on record: control cells exposed to vehicle, absence of activator. The source says:
A system was used based upon the expression of a fluorophore after nuclear translocation of a transactivator sequestered on the plasmatic membrane by a TEV recognition site (TEVcs).
In particular, the inventors made to express in HEK293T cells a “tetracycline operator EGFP conjugated” (tetO-EGFP) and a synthetic protein consisting of a transactivator controlled by tetracycline (tTA), bound to a transmembrane domain (TMD) through a TEV recognition site (TEVcs) (TMD-TEVcs-tTA) (FIG. 7).

Series [1] has as its system hippocampal organotypic sections. As to the kind of experiment: ERK phosphorylation in hippocampal organotypic sections treated with purified mature BDNF. It counts as cell-based, rat. The conditions noted are these: hippocampal organotypic sections treated for 30 minutes, Western blot. Here is the method:
HEK293T cells were transfected (PEI MAX—Polysciences, Inc.) with the plasmids codifying for unica-secTEV (pcDNA-unica-secTEV-SV5) and pro-TEVcs-BDNF (HA-pro-TEVcs-BDNF-Flag-SEP) and left for 24 h at 37° C., 5% CO2.
After 24 h the cells were treated for 1-3 h with rapamycin (1 μM) or DMSO as control. The cells were washed with cold PBS and lysed with lysis buffer containing rapamycin (1 μM) or DMSO. The lysate was immunoprecipitated with FLAG-M2-beads for 1 h and subsequently FLAG peptide (sigma F3290-4 mg) was added. After 1 h the beads were removed by Micro bio-spin Colums®—Bio-Rad. The eluted protein was kept at −20° C. Once quantified by commercially available ELISA kits its biological effect was tested as described in FIG. 6.
In order to test the biological activity of mature BDNF obtained with the chemogenetic strategy in neurons, BDNF was immunoprecipitated and purified by HEK293T cells co-transfected with unica-secTEV and treated with rapamycin. […] In fact, BDNF biochemical features, including the positive charges on its surface, prevent the spreading thereof and keep its action locally at level of synapses. This feature obstructs even the effectiveness of injections of purified BDNF as therapeutic strategy. […]
(In general: Immunoblotting shows a protein as a band on a membrane.)

Series [2] addresses pro-TEVcs-BDNF (HA-pro-TEVcs-BDNF-Flag-SEP), P23560.
For another series, the system named is pro-TEVcs-BDNF. The series can be described thus: In vitro protease test after immunoprecipitation of pro-TEVcs-BDNF and unica-TEV. The settings on record: in presence of rapamycin; SDS-PAGE. Format: biochemical.
Series [3] deals with pro-TEVcs-BDNF human recombinant. The series can be described thus: Cleavage/maturation of pro-TEVcs-BDNF in transfected HEK293T cells (Western blot). Format: cell-based.
A further series deals with CFP-TEVcs-YFP. As to the kind of experiment: Cleavage of CFP-TEVcs-YFP substrate in the cytosol of transfected HEK293T cells (Western blot). Format: cell-based. The source says:
Enzymatic Activity of Unica-TEV in Vital Cells • 13) Use CFP-TEVcs-YFP synthetic recombinant protein as substrate;
This artificial construct has two fluorophores conjugated by the cleavage sequence recognized by TEV (TEVcs). AntiGFP (Biolegend) antibody was used to verify cleavage of CFP-TEVcs-YFP by unica-TEV.
In order to do it, HEK293T cells were transfected (PEI MAX—Polysciences, Inc.) with the plasmids codifying constitutively active wild-type TEV (pcDNA-TEV), and engineered TEV with UniRapR (pcDNA-unica-TEV) and left to grow for 24-48 h at 37° C., 5% CO2.
For both of them, CFP-TEVcs-YFP was co-transfected.
After 24h the cells were treated for 1-3 h with rapamycin (1 μM) or DMSO as control. The cells were washed with cold PBS and lysed with lysis buffer containing rapamycin (1 μM) or DMSO. 10% of the volume of samples was prepared (addition of 2× Laemmli protein sample buffer+boiling for 5 min) for the electrophoretic analysis on gel of SDS-polyacrylamide.

The conditions of series [4]: mutations I138T, S153N and T180A; relative to wild-type TEV; cited from earlier work.
Another series deals with CA1 pyramidal neurons. The series can be described thus: Dendritic spines of CA1 pyramidal neurons in transfected organotypic hippocampal sections. It counts as cell-based, rats. The conditions noted are these: unica-secTEV activated with rapamycin for 24 h. The source says:
In order to test the biological activity of mature BDNF obtained with the chemogenetic strategy in neurons, BDNF was immunoprecipitated and purified by HEK293T cells co-transfected with unica-secTEV and treated with rapamycin. […] In fact, BDNF biochemical features, including the positive charges on its surface, prevent the spreading thereof and keep its action locally at level of synapses. This feature obstructs even the effectiveness of injections of purified BDNF as therapeutic strategy. Since the extracellular application could involve both sides, even the exogenous application of purified BDNF is not useful in sectioning the roles of pre- and postsynaptic release. […] These gene approaches involve the deletion both of proBDNF and BDNF, the contribution of each form to the observed effect cannot be distinguished. The chemogenetic strategy developed by the inventors to control the protein cleavage is useful even to evaluate the specific autocrine action of BDNF inducible intracellular maturation in CA1 pyramidal neurons. In order to monitor BDNF specific effects in the postsynaptic neurons, organo-typical sections containing the hippocampus of rats with unica-secTEV, pro-TEVcs-BDNF and dsRed2 were transfected ballistically to display in a fluorescent way CA1 pyramidal neurons. After 48 h, unica-secTEV with rapamycin was activated for 24 h.

For the next series, the system named is TrkB. The series can be described thus: ERK phosphorylation in cells expressing pro-TEVcs-BDNF, unica-secTEV and TrkB-mGFP. Format: cell-based. The conditions noted are these: chemogenetic activation of unica-secTEV; co-expressed TrkB-mGFP. The source says:
In order to evaluate if mature BDNF obtained after activation of unica-secTEV was able to bind and activate its TrkB endogenous target receptor, pro-TEVcs-BDNF was expressed, unica-secTEV with TrkB-mGFP.

B1: unica-TEV without linker: unica-TEV construct with no linker (NL) between TEV and UniRapR (protein)
chain: GESLFKGPRDYNPISSTICHLTNESDGHTTSLYGIGFGPFIITNKHLFRRNNGTLLVQSLHGVFKVKNTTTLQQHLIDGRDMIIIRMPKDFPPFPQKLKFREPQREERICLVTTNFQTKSTCVVHYTGMLEDGKKFDSSRDRNKPFKFMLGKQEVIRGWEEGVAQMSVGQRAKLTISPDYAYGATGHGSGSGSGVKDLLQAWDLYYHVFRRISGPPGPGSGLWHEMWHEGLEEASRLYFGERNVKGMFEVLEPLHAMMERGPQTLKETSFNQAYGRDLMEAQEWCRKYMKSGSSGGSGSGIIPPHATLVFDVELLKLEMSSMVSDTSCTFPSSDGIFWKHWIQTKDGQCGSPLVSTRDGFIVGIHSASNFTNTNNYFTSVPKNFMELLTNQEAQQWVSGWRLNADSVLWGGHKVFMVKPEEPFQPVKEATQLMN
B1: the “EGFP signal (background)” value in the series on TMD-TEVcs-tTA is recorded as “substantially lower”; with TMD-TEVcs-tTA (listed as NL construct), “almost wholly absent”.

B2: purified mature BDNF: mature BDNF immunoprecipitated and purified from HEK293T cells co-transfected with unica-secTEV and treated with rapamycin (protein, UniProt P23560 129-247, looked up)
Neurotrophic factor BDNF: HSDPARRGELSVCDSISEWVTAADKKTAVDMSGGTVTVLEKVPVSKGQLKQYFYETKCNPMGYTKEGCRGIDKRHWNSQCRTTQSYVRALTMDSKKRIGWRFIRIDTSCVCTLTIKRGR
modifications: Neurotrophic factor BDNF
notes: mature BDNF immunoprecipitated and purified from HEK293T cells co-transfected with unica-secTEV and treated with rapamycin
Take B2: the figures for the ERK phosphorylation entry in series [1] and in series [1] (listed as mature BNDF) were “significant increase in ERK phosphorylation signals” and “induces a phosphorylation of ERK protein”, respectively.

B3: unica-TEV (unimolecular chemical-activatable TEV) (protein)
chain: GESLFKGPRDYNPISSTICHLTNESDGHTTSLYGIGFGPFIITNKHLFRRNNGTLLVQSLHGVFKVKNTTTLQQHLIDGRDMIIIRMPKDFPPFPQKLKFREPQREERICLVTTNFQTKSGGSTCVVHYTGMLEDGKKFDSSRDRNKPFKFMLGKQEVIRGWEEGVAQMSVGQRAKLTISPDYAYGATGHGSGSGSGVKDLLQAWDLYYHVFRRISGPPGPGSGLWHEMWHEGLEEASRLYFGERNVKGMFEVLEPLHAMMERGPQTLKETSFNQAYGRDLMEAQEWCRKYMKSGSSGGSGSGIIPPHATLVFDVELLKLEGGSMSSMVSDTSCTFPSSDGTFWKHWIQTKDGQCGNPLVSTRDGFIVGIHSASNFTNTNNYFASVPKNFMELLTNQEAQQWVSGWRLNADSVLWGGHKVFMVKPEEPFQPVKEATQLMN
Turning to B3, the “in vitro protease test after immunoprecipitation of both proteins, with rapamycin, SDS-PAGE” value in series [2] is given as “SDS-PAGE migration of pro-peptide was noted”.

B4: unica-TEV: engineered single-chain TEV protease with uniRapR domain inserted between S120 and M121, rapamycin-activable; SEQ ID Nr. 5 (protein)
chain: B3 chain
modifications: Peptide sequence of unica-TEV engineered protease (1)..(440)
In the case of B4, the “cleavage of pro-TEVcs-BDNF in vitro” value in the series on pro-TEVcs-BDNF is listed as “SDS-PAGE migration of pro-peptide was noted”. For the same molecule, in [3] (HEK293T, cytosolic localization of TEV protease), the “splitting of pro-TEVcs-BDNF in living cells by cytosolic protease” value is given as “nor unica-TEV in presence of rapamycin, nor an active mutating form of TEV, split pro-TEVcs-BDNF”. Moreover, the “cleavage of CFP-TEVcs-YFP (background activity)” value in the series with CFP-TEVcs-YFP (in absence of rapamycin) was “absence of cleavage background”. The “cleavage of CFP-TEVcs-YFP” value with CFP-TEVcs-YFP (in presence of rapamycin) is “identical cleavage profile”. Further, the “kcat/Km ratio unica-TEV/wtTEV” value in series [4] is 2.81.

B5: unica-secTEV: unica-TEV with N-terminal secretion signal and mutations for activity in the secretory pathway; SEQ ID Nr. 6 (protein)
chain: QGAQGESLFKGPRDYNPISSTICHLTQESDGHTTSLYGIGFGPFIITNKHLFRRNNGTLLVQSLHGVFKVKNTTTLQQHLIDGRDMIIIRMPKDFPPFPQKLKFREPQREERICLVTTNFQTKSGGSTCVVHYTGMLEDGKKFDSSRDRNKPFKFMLGKQEVIRGWEEGVAQMSVGQRAKLTISPDYAYGATGHGSGSGSGVKDLLQAWDLYYHVFRRISGPPGPGSGLWHEMWHEGLEEASRLYFGERNVKGMFEVLEPLHAMMERGPQTLKETSFNQAYGRDLMEAQEWCRKYMKSGSSGGSGSGIIPPHATLVFDVELLKLEGGSMSSMVSDTSSTFPSSDGTFWKHWIQTKDGQCGNPLVSTRDGFIVGIHSASNFGNTNNYFASVPKNFMELLTNQEAQQWVSGWRLNADSVLWGGHKVFMSKPEEPFQPVKEATQLMNEGGLE
modifications: left off: small tags and cut ends
As for B5, in the series on CA1 pyramidal neurons, the “morphology of dendritic spines” value is “significant changes in the morphology of dendritic spines” and the “volume of heads of dendritic spines” value is “increase in the volume of heads of dendritic spines”. In the series with CA1 pyramidal neurons (co-transfected pro-TEVcs-BDNF and dsRed2), the “density of dendritic spines” value is “significant increase in the density of dendritic spines”. Besides, the “cleavage of pro-TEVcs-BDNF (background activity)” value in series [3] (in absence of rapamycin, secretory pathway) is “absence of cleavage background”. Besides, the “maturation (cleavage) of pro-TEVcs-BDNF in vital cells” value in [3] (in presence of rapamycin, secretory pathway, Western blot) was 41-kDa band was noted designating BDNF maturation in the living cells and capability of unica-secTEV to make pro-TEVcs-BDNF to mature in vital cells. For the same molecule, the ERK phosphorylation entry in the series with TrkB is “clear increase in the kinase phosphorylation”.
